Measurements reported in the domain aggregation screens of Martell et al. (2025).

Assay: soluble fraction after stress (log2 fold change); higher = more stays soluble; pooled small domains, quantitative proteomics
Conditions: stress: pH 4
Outline: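 High-throughput quantitative proteomics was run on pooled custom libraries of small protein domains following pH 4 stress. Fold changes are on a log2 scale; higher values mean more of a domain remained soluble. The fold change in soluble amount is taken as a measure of aggregation propensity.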

Row | Sequence | soluble fraction (log2)
1 | HMIDHKVIRSFRQKRNMTLQELAQKANLSVSYLSEIELGKKQPSLETLDKLSKALNISLEGL | 0.131
2 | HMVAFYATPKERGIYDDAETYREGDIVSIADGSRWIYVNPTATAGNDPADGSVYWERMSGAATGP | -0.127
3 | HMQVFDSNEIDEVVKKVIENNPQAVADFKKGKSNALQFLAGQVMRETKGRFNPNVVQERIRLLLT | 0.256
4 | HMGFPAPFDGKAVAELRRRLGLTRRGLAEELSVSPSTVDKWEQGDVALRSPALTILKILWHQGLKALPP | ≥ 0.43
5 | HMDLANRSLDRGITILESLARNGASSLADLHRDSGIAKSTIRRLLGTLIQHRLVRRSVADGLYRVTIPLPA | 0.025
6 | HMDLLESLSAREREVVHLASRGLVNKLIARELGITERTVKAHLSSAFEKLHIKDRVHLALLVNGI | -0.48
7 | HMSRLLTTRQREVFEVATREGFWDVPRRINLSELAKVLGVAKSTLSSQLQRIESAVFHAFTDEIRRQS | 0.313
8 | HMDIESREAWVDASGMGVRLDRWLTQLAPEFSRNHLQSLIERGAVRVDGQPALVASRKLRIGQQVAVSLIP | -0.0568
9 | HMRMSPRERKIYQFIENHPGTKSGEMAEKLGIPLPTIKRLLSDMVASKLLQKHGTGAGTNYSIEE | ≥ 0.43
10 | HMNNSDIDITVGKNSISINNPNRTNIIIYSSNGMLIDSSKNASYKRNLPSGIYIVKSGSSTHKVIV | ≥ 0.43
11 | HMDPTYYFNLYPNPSKDEVSLFTNFTGKINIEILDLAGKSILSDNPISTISLVSLKEGLYLVKVKS | -0.337
12 | HMSREVTVPPLSGLTLRDAARTLAERGLLMEAEGQGAVHRQDPPAGTRVPTGTPVRVFLTLPEQNS | -0.511
13 | HMKPTVKGHFTRKESNVGGYADVRGWGVAGTPSMMANQSKDTRRFSTLIVPGRSVNVHPSPTKEAIIWWQS | -0.138
14 | HMPLPLYVQIKESLRGQIFDGTYGEHERLPSENDLMSSFGVSRITVRQALSDLEKEELIFKVPGKGAFVSR | -1.28
15 | HMTTHERHEIIELLRQVGDPMRPKEISEALGKPSGAIRFLLSKLTEEGAIKKTGYGQYTYIP | -0.0635
16 | HMDDGARQLVDQLNRLIANPAVSARIIHGYLILEGRVESEWEKTRTLLLAQVAGLPVIDLITVS | -2.12
17 | HMATTMSADWRPSEDAVGILVNAEINARFIEDAIPEFVLYWRERGAVHGAWNSKFIEHIRRQWAKFSAS | -1.31
18 | HMDVLFGNRLRQLLDERNISQAHFADRIGVSRSRMNNYVAQRSEPDYATLIRIANTLDTSIDFLLGKS | -0.45
19 | HMSKSIELMNEIKKYIEEYYLQYRQSPSTTKIAEAVGIARGTAYKYLVEMSERNMIEYDGQEISTEVTRKY | -0.381
20 | HMLSVRNRMSDVLKSLDDGEFHRFESLFNLEEGRLGVVVTFLAMLELAKEMLVEIVQNESLGPIYLKSR | 0.144
21 | HMKEQLLLGFKVRSLRGIDLGFVKFIEGSAFQSFLKTDLTIIPNVPNYVKKIDNVKKIILVDWESD | -1.54
22 | HMRTYDPQAVELNNKALELINQGRLDSALLVYDQSIKTDKTYYFPHIGKSIIYMRKKDWNKAFEETQQAIK | 0.0261
23 | HMDKEPTHLHTFRLIKEGKSSEEIAEIRNITLGTVNTHLAKLIAVGELTIEQVISKHRLDYVMEAIKNSK | -0.825
24 | HMLYDNQLPDWAGQMVKNHGLTISPKALVILVDHIGNDLSRIENEIEKLMLNLGTRKSITEDDVEN | -1.34
25 | HMVKIIHYEVYANRGDGWKLVDQFSADQRQEAVNLAKEIETEDQVAVKIIREIFDVQDNTYQESVEYIG | -0.804

Row | Sequence | soluble fraction (log2)
26 | HMTNYGTVRPGARGQAVTALQQALIRHGYKLTADGIYGRATRQAVRAFQQKHKLKVDGIVGSKTWALLLAD | -0.0192
27 | HMDTLESYVKRLEKLEGIADSFKGVSKAFALQAGREIRIMVESEKITDEEAVWLSKDIARRIENELEYPG | -0.468
28 | HMSEFAYPISLNGKTKFNLALSLALTKEEIEKEVLANADVQKFLNGQTPKKLIVVPGKIVNVV | 0.123
29 | HMGPSLDAVREQIRDLIAEEDKSAPYSDLSLVAELEKRGIHISRRTIAKYRGEMGIPNSDQRRYF | 0.325
30 | HMNQNAMIGAHIRNLRLAKKLTLKQLSDESGLSVGFLSQLERGMSSIAIDTLARLAHILGADLSSFF | -0.214
31 | HMNHHTEQQLKALSNKVKDHRMRMRLLAVAHFKAGKNKADVARTLNVSRRMVNEWVANYFKGGVSALES | -0.047
32 | HMQVLLTRREKEILKLIAEGLTSAEIGKRLFISTTTVDTHRKHLLEKLKAGNTAILIKTAVQLDLI | -0.223
33 | HMGNLPPAVINARIKVSPAGRGVFVGFDKGSTSTEAKYADAIRGYLPNIEFNKDDHESVVTVPFNFR | -0.0258
34 | HMGRDWKTDLLNLATARGWGDVSYEVTGEGPDHARVYTAVAIVANQKTGTGVGPSKKEAERLAAEQAYRML | 0.132
35 | HMEPVTETVYAMDTVNIRAAADQTSEKIGSVTVGTALTRTGTDGDWSIIDYNGTTGYVKSEFLSNTAPEV | -0.22
36 | HMTRQNTAVQQSDMAHHKASELTEGMSIVHSHFGRGTIISIETADDPRVTVDFSSEGRKTMLLRFAKFAIE | -1.08
37 | HMESRLQAAIALRKAGEHEQSREALKILADEPALRAQALLNIAWSFDNQGHERDAEGYYLAAIE | 0.127
38 | HMGSEGVKVEDTIGMSEAEATATLGKSGFVVNKTESHDPYIKAGNVITQSPAAGSKAPKGTTVTLTISLGP | 0.423
39 | HMGELRAPLPGVIVSIPVKEGDEVKAGQAILIIEAMKMESEISSPIDAKVAKIVVKERVLVQEGDILIILE | -0.876
40 | HMNFDLDSFKQRMTLDGLYFGNEKQDVIALNNLSERYQLTWFDVYQLAKETSSNHKILPKRILVKLQQ | 0.158
41 | HMNDRLAGMEGQRGEAATNFDQGEGKVKVGDTVWLAKQSDSTVIVEGDQIVVTGSENGLLKVRL | -0.453
42 | HMLKDKLSDKDFDFYKNKIQIQLQGNPTELKELVRRFSSTEEQQILKTIDYMLDNGFLRIDEDNMIYWK | -1.8
43 | HMIERVLRTEEHIEAFAGEEVEAKLFAPIDGKKTLRGILGGIEDGRVILTVGDTEYRIEHAKISRLTTVFD | -0.712
44 | HMKFINISIDKSGNLFINKKSIKFQDLKYNVVNLVDESKNLVVLNADENISHGYVISVLDVLRSIDGLKLA | -0.802
45 | HMKAETILAIPENQPERLFPNNEDEARKIYRDLAREWHTDRNKSPKAQDVFSHLSKLYDIVIDRIKNKTWT | -0.0463
46 | HMYDPVNEIGRVLKKIRQERSLTLDNVAEITGVSKTMLGQIERGVSVPTISVLWKIAKGLQVSLSTLLNE | 0.36
47 | HMPSLGGLLALLKRNRKPDAMEALDRLISKEDRPETAEALENIREKVRNMQMREAEGLLLALMEP | -0.281
48 | HMIVNTTRAPYLLGETEQDAMRLARQAGLVPEIVRQSSAEPAGTVILQSHDFDYRMRRGSVILITVSTGPL | 0.22
49 | HMQGTTTELLIQKSALYEELNDPEKALNAMFDAFEMDSLNVNVLHRIVSLLLDKEENEKAILYNQLIIDH | -0.507
50 | HMKQYSFEISKADFKKISENFNFKIINEINDSLIISLNDKNINLDELLIFFVERKIKVRSIENI | -1.06

Row | Sequence | soluble fraction (log2)
51 | HMGPSSIVVYVSGAVKTPGVYTLAPGSRVDDAVRAAGGLSERAESAGTNLAAQLSDGEHVHVAAAGE | -0.159
52 | HMQIYLTPEQFKIIDFMEQMGKITVKDVMDILNIPKRTAQLHLQKLKTLKMIAQTGKGPSSAYLL | -0.797
53 | HMSRMLTVKQREVFDLAMREGYWETPRRITLTMLASLLSVSKSTLSVQLHKIEGTVLSSFSDEVRRRS | -0.011
54 | HMGQKNEDESLAKFYVHKKGNQYGPYSLIQIREYLKNNSFSLDDLASWDGQSWKKISQIPNLN | 0.182
55 | HMLQLDATDRALIVATQGGLPLVPRPYQVVGEQLGISGEEVVARLRALLDAGVIRRIGAVPN | 0.327
56 | HMIVVMARETSTDDLEAIRERIESRGMVAQINLGVERTVIGVMGSIPPDFKDEMELMNGVVEVVMISK | -1.64
57 | HMGSEYPSNPLASRWAKGVRLYHDEWGYGVIQAARGSEPDDYVITVRFESGAEKSFLPKFQAHSLMIVKD | -0.974
58 | HMRKSAVSSTLTSIEGIGATRAKALLKHFKTVAAVSEADLKELEDAPGMTRPSALRVYEYFHGK | 0.0795
59 | HMLEASVYTAEKSGDRLDAFLAEQAGITRSYAQKLIEGGQVTLGGVVPKKNYKLSAGEQVELILPEN | -0.00206
60 | HMDEPSITYGKVKVQTSLNVRQGPGTQYARIGSLGPNVRIQILGQEGQWYKIKYGNLQGYVHSDYVELEK | -0.376
61 | HMTGSALDATIEKLLDLGSKAGSVTEDEIQIVLKNVDVTDAQLSSIYQFLRDRGVEIVSATEDDD | -1.38
62 | HMRVTEIDYGAFMKMIEEKNIGEVKVEDYEIVFTDKDNKNIYKTGIMDDPDLTQRLYNSGAVFA | -1.22
63 | HMKNAYDLKMLVKDNDGNIERNMKYYFFLANGSKVEGITDDNGYTKTITTIQPEKADLHLINDELI | -0.0557
64 | HMSNATELVYDDGRKLLISYETLVGGYHPDLGWIRTAKTYSISTDKHIRNYFNNVTNPRVVGEDILETLKI | -0.237
65 | HMLNDKLQTLFSLFPAVDKDLKKKGVTRQILWEQYKRNHPDGVGRSQFNYYYAQWKDQVNPT | 0.22
66 | HMVKNYYEILEVDKKASPEVIEKAYKTLAKKYHPDLQEAENNGQYEEKMKEINEAYSVLSDEFKRRTYDEQ | 0.103
67 | HMQLPDLDEIRQMRKRLDLSQRELAALAGVSQSLIAKIEKGSIDPSYDNVRKIFNAFENILKKRALE | -0.495
68 | HMDDHLRLSDNERISAMSALATHFTEGRLDTSEFDERTLAASQAKSRGDLRPLFDDLPGQLPAALSP | -0.125
69 | HMELDMTFGEKIQKLRKESGLSQEELSYQLGVSRQAISKWERDSGYPETEKIVRMSKIFDVTLDYLLNE | -1.06
70 | HMDGFVFVMPIKETRMFSVNDERPLVGIVKYSNGEFEKEQLIGFRPNSEYEFIIEGQRLYRVPVNSITIK | -1.25
71 | HMFRPRIEPGAKGSYVLEVQKRLAKLGYEHAGFDGVYGPGTERAIMQLQRDKGLPVTGIVDMRTYEALGLF | ≥ 0.43
72 | HMEVNMEEKMEFVHSYIKTHKTFLFRQLLSESKSRTQVIVTFLVILELIKGGKISVTQENRTDDILINSL | -0.521
73 | HMQEPIAVPDFINKSAVDVLVNPVFTQNFKLVSEDVYDDKVPEGYIVGQSVKSDTLVQPGTEIVIYV | 0.0962
74 | HMEIEIPEELQNKFAEIPELKTAFESLTPGRQRAYVLYFSQPKQSKTREARIEKYIPHILDGKGMN | 0.0591
75 | HMFYNDLINFDVFRDSRKIGKIENINSRLPQPVFEIMYDSRIVLIPIHEDFIRKIDKVNNIIYLDIPDGLL | -1.69
